This note sets out measurements from the supplement of paper PMC12042874.

± gives the uncertainty stated by the source.

This series can be described thus: amyloid nucleation score (Sup35N fusion, yeast selection) (log enrichment); library NNK1; higher = more nucleation; inactive = no reads after selection. The procedure, abridged:
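DiMSum was used to calculate nucleation scores as log enrichment of output over input reads, centred on the mode score of non-aggregating sequences. Sequences with fewer than 100 input reads were not scored. Input and output came from Illumina sequencing of plasmid inserts in psi-negative yeast expressing peptides of 20 random codons fused to Sup35N, induced 24 hours with 100 μM copper sulfate and then grown 7 days at 30°C on medium lacking adenine and uracil.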

NYIEPQG yielded an amyloid nucleation score of 0.296 ± 0.97.
For WYKSYVITFITDTLVVDRET, the amyloid nucleation score was found to be 2.41 ± 0.16.
Turning to MLEDNLRVTTWPY, the amyloid nucleation score was -0.407 ± 0.39.
Consider LGFVRLGGSCHITIDSGACV, for which the amyloid nucleation score is -0.386 ± 1.
NWMTLRWVLGGLSNGFDGSH gave an amyloid nucleation score of 4.41 ± 0.073.
In the case of RIENDGLEMLGIINQQSCGS, the amyloid nucleation score is 4.01 ± 0.11.
Substance VCLSSLIRMCKYSFPDGTGH gave an amyloid nucleation score of 6.813 ± 0.051.
GKIRSKKGQSLGQNT showed an amyloid nucleation score of -1.16 ± 1.2.
Then ALNHRHTGTRK, with 0.782 ± 0.61.
The substance CSKVVSSVLVQL had an amyloid nucleation score of -0.322 ± 0.45.
Substance NILFCWMGTMYPLLLSAYGR came in with an amyloid nucleation score of -0.793 ± 0.48.
On to YLFFNLYCNYVLTAMLRACS, for which the amyloid nucleation score result is “inactive”.
The same measure for YILWNHNGLNGWGFAGITLF: -0.994 ± 0.51; for MCMSRP: -1.05 ± 0.9.
The same measure for LECSNSNLWCTPN: 0.712 ± 0.69.
The same measure for EFIGFRLFIQVNSDFM: 1.69 ± 0.23; for SDNIYVMAWCSCNAARSIVF: 0.616 ± 0.18; for RSTKKFSPQDTPHSLHVKKG: 0.574 ± 0.42.
In turn, TIFLINIPANFSMGMLHAHR showed an amyloid nucleation score of 0.303 ± 0.86.
Then YIDIVSQKC, with 0.922 ± 0.62; and FKVTVRVGSTMSILL, with 0.223 ± 0.42.
The substance RSRVLRMLFPAGEDYQLHMV registered an amyloid nucleation score of 0.8 ± 0.65.
In the case of VSVSNISSVLTLSGKMLIST, the amyloid nucleation score is -0.031 ± 0.39.
Substance YCMRFVQ registered an amyloid nucleation score of 1.52 ± 0.49.
Substance GQAGGWTARGQSSDIDLGQR displayed an amyloid nucleation score of -0.146 ± 0.63.
The same measure for MSTVFADLR: -0.292 ± 0.29; for YFLTFRFCFSVNEVIDPWCA: -0.725 ± 1.1; for LLGVLWFKVSCGARAQLGIW: -0.197 ± 1.9.
Regarding FIRSRMVWLCLMLISTIERG, the amyloid nucleation score came out at 0.835 ± 0.39.
The substance FFFYKPMNVEAIRDLHWPYS showed an amyloid nucleation score of 6.229 ± 0.06.
LMQVVGTVGGRQCTVGWFGV yielded an amyloid nucleation score of -0.523 ± 0.66.
Turning to SNHQLEYRL, the amyloid nucleation score came to 1.52 ± 0.55.
The same measure for VFNMTYRKIRVTE: “inactive”.
SVLSMLIWYKPHREGSLN returned an amyloid nucleation score of 0.812 ± 1.1.
As to LFWCVSVNRDIKIQCDRTLF, the amyloid nucleation score turned out to be 1.13 ± 0.51.
PYWLINIQEVTTD had an amyloid nucleation score of 0.654 ± 0.48.
The same measure for PLLLNEVKRL: 0.614 ± 0.29.
Consider VLTKWGIWGGQWCTVLSRGR, for which the amyloid nucleation score turned out to be 0.211 ± 0.37.
In turn, LLQVWYFFR came in with an amyloid nucleation score of 0.296 ± 0.66.
For LYRYEYDCNSLSMS, the amyloid nucleation score was 2.73 ± 0.078.
RCCLVMCWCLCKNYSN showed an amyloid nucleation score of 5.38 ± 0.049.
For the substance GYEDRRSRCSIWVVRFLNVL, the amyloid nucleation score is -0.605 ± 0.8.
The substance SCVYCMSRSNWILVWMALLQ had an amyloid nucleation score of 0.614 ± 0.45.
YYLQDDTWGLKFNPIVSTCF returned an amyloid nucleation score of 1.13 ± 0.54.
DVRLRRYEGGQSSVTSHHDN: the amyloid nucleation score stood at 0.028 ± 0.53.
The same measure for GGLVRSKFYFTL: 0.19 ± 0.25; for EYVMIRHAVLIKMFSMLKRV: -0.577 ± 0.45; for FKNLCRAVS: 0.059 ± 0.53.
The same measure for SPSES: -0.31 ± 0.61.
In the case of MNKLYITA, the amyloid nucleation score was 0.035 ± 0.84.
For LIKSMDFLGRM, the amyloid nucleation score was found to be 0.117 ± 0.69.
Turning to ISVHIFKGLYRSKSVAWRNV, the amyloid nucleation score is -0.069 ± 1.1.
The same measure for SLYGYCLYARMCTASSKKLI: 1.09 ± 0.28.
Then LLVSFTENNRPDLILQSHLM, with -1.2 ± 1.2; and RCILRSTSFRAVAWM, with 0.771 ± 0.67.
SWQAVCAMSCCLW registered an amyloid nucleation score of 8.628 ± 0.051.
Consider DFNYPDSSCLGFKCLNAHWV, for which the amyloid nucleation score is -0.731 ± 0.33.
SSSFRCAFSSVA displayed an amyloid nucleation score of 0.994 ± 0.69.
